Assay results published in US20060287320A1, “Preparation of thioarabinofuranosyl compounds and use thereof” (Southern Research Institute, priority 1998, published 2006).

What was measured:
Assay in all cases: purified protein, by the assay type
[1] = substrate: Nc1ccn([C@H]2C[C@H](O)[C@@H](CO)O2)c(=O)n1; conditions: other: dCyd deaminase activity from human placenta, pH 7.4, mean and standard deviation from 3 experiments
Method: (§1) Reactions were carried out in solutions containing 20 mM potassium phosphate (pH 7.4), 100 mM KCl, various concentrations of radiolabeled nucleoside, and enzyme. The reactions were stopped with acid, the substrate was separated from the product by paper chromatography, and the radioactivity in each were determined. The kinetic constants were determined from linear double-reciprocal plots of 1/velocity versus 1/concentration of the substrate. The best line was determined by linear regression from at least 5 datum points, and the Km and Vmax were determined from the x and y intercepts. The data presented are the mean and standard deviation from 3 separate experiments.

[2] = substrate: Nc1ccn([C@H]2C[C@H](O)[C@@H](CO)O2)c(=S)n1; conditions: other: dCyd deaminase activity from human placenta, pH 7.4, mean and standard deviation from 3 experiments
Method: as §1

[3] = substrate: Nc1ccn([C@@H]2S[C@H](CO)[C@@H](O)[C@@H]2O)c(=O)n1
[4] = other: dCyd deaminase activity from human placenta, pH 7.4, mean and standard deviation from 3 experiments

| Protein | Km [1] | Vmax [1] | Km [2] | Vmax [2] | Km [3, 4] | Vmax [3, 4] | Km ([3]; other: cytidine deaminase, radioactive substrates) |
| --- | --- | --- | --- | --- | --- | --- | --- |
| dCyd Deaminase Activity Isolated from Human Placenta (Homo sapiens) (protein) MAQKRPACTLKPECVQQLLVCSQEAKKSAYCPYSHFPVGAALLTQEGRIFKGCNIENACYPLGICAERTAIQKAVSEGYKDFRAIAIASDMQDDFISPCGACRQVMREFGTNWPVYMTKPDGTYIVMTVQELLPSSFGPEDLQKTQ | 23 ± 2.7 µM | 1.3e-05 µmol/min/mg | 111 ± 77 µM | 3.7e-05 µmol/min/mg | 2944 ± 1023 µM | 2.1e-05 µmol/min/mg |  |
| cytidine deaminase (Homo sapiens) (protein) MAQKRPACTLKPECVQQLLVCSQEAKKSAYCPYSHFPVGAALLTQEGRIFKGCNIENACYPLGICAERTAIQKAVSEGYKDFRAIAIASDMQDDFISPCGACRQVMREFGTNWPVYMTKPDGTYIVMTVQELLPSSFGPEDLQKTQ |  |  |  |  |  |  | 2570 µM |
